According to US12692310B2, “ASIC1 channel antagonist antibody” (ShanghaiTech University, priority 2019, dated 2026):

Key:
hASIC1a = target: T1, hASIC1a (Homo sapiens, UniProt P78348); assay: Whole-cell patch clamp, acid-induced hASIC1a currents in stable CHO-K1 cells; assay type: cell-based
T1 construct: expressed in transfected cells
T1 sequence (P78348 1-528): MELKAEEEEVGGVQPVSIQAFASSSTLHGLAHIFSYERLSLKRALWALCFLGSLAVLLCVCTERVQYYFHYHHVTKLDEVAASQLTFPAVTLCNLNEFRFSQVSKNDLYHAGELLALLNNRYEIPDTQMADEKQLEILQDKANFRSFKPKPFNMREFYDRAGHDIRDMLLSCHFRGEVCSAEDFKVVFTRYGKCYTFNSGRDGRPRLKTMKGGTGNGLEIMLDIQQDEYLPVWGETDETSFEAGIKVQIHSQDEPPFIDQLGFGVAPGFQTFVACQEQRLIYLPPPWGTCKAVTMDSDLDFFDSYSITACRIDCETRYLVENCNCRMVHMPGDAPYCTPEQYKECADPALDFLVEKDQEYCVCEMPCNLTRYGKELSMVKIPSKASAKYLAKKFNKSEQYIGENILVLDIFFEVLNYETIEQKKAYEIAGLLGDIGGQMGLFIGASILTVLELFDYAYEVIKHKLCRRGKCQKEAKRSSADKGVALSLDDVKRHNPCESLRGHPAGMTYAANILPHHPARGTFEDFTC
Experimental: Electrophysiological Experiments. The inward cellular ASIC1a current was recorded from a single cell using standard whole-cell recording techniques by a patch-clamp amplifier (Axon 200B; Axon Instruments). Membrane currents were sampled and analyzed using a Digidata 1320A interface and a personal computer with Clampex and Clampfit software (Version 9.0.1; Axon Instruments). For a typical experiment, the extracellular fluid (ECF) used contained 150 mM NaCl, 5 mM KCl, 10 mM HEPES, 10 mM D-glucose, 2 mM CaCl2, and 1.0 mM MgCl2, with the osmotic pressure in the range of 320-335 mOsm, and pH 7.4 adjusted with 5 M NaOH. Patch electrodes (4-6 MΩ) contained 30 mM NaCl, 120 mM KCl, 0.5 mM CaCl2, 1 mM MgCl2, 10 mM HEPES, 2 mM MgATP, and 5 mM EGTA (pH 7.2 adjusted with 5 M KOH) at 300 mOsm. The ASIC1a activating ECF is identical to the normal ECF, except that MES was used to replace HEPES to maintain the ECF at pH 6.0. A coverslip with discretely distributed individual CHO-ASIC1a stable cells (6H7) on the surface was placed into a recording chamber under a constant perfusion (~2-3 mL/min) generated by an ALA 8 channel perfusion system (ALA Scientific Instruments Inc.) mounted on an inverted microscope. After achieving the break-in (whole-cell) configuration, the cell was voltage clamped at a holding potential of −70 mV. The normal ECF (pH 7.4) was first perfused onto the patched cell, and then, the activating ECF of pH 6.0 was rapidly applied to elicit a maximum inward ASIC1a current as control current. When testing the inhibition effect of the antibody, ECFs of pH 7.4 containing different concentrations of ASC06-IgG1 were perfused from low to high concentration into the recording chamber for 10-15 min. To measure the inhibition of the current, the activating ECFs of pH 6.0 containing the corresponding concentrations of the testing antibodies were applied to the same patched 6H7 cell to generate the inward currents that can be normalized to the control current of the same cell. […] Data acquired from four to five cells were used for statistical calculation of inhibition effects.
The function of ASC06-IgG1 was characterized using electrophysiology approach. The effect of ASC06-IgG1 antibody on the acid-induced, hASIC1a-mediated electrical current in cells was analyzed. PcTx1 was used as a positive control. […] The amplitudes of the hASIC1a-mediated inward currents of the stable cells were recorded and quantitated in the absence and presence of ASC06-IgG1, with venom peptide PcTx1 (100 nM) used as positive control. […] Unlike the sustained inhibition with the antibody after washing, the inhibition with PcTx1 could be readily washed out within 5 minutes (FIG. 5C).

hASIC1a-eYFP = target: T2, hASIC1a-eYFP (Homo sapiens, UniProt P78348); assay: Western blot and immunoprecipitation of 6H7 cell lysate; assay type: binding; parameters: expressed in transfected cells
T2 sequence (P78348 1-528): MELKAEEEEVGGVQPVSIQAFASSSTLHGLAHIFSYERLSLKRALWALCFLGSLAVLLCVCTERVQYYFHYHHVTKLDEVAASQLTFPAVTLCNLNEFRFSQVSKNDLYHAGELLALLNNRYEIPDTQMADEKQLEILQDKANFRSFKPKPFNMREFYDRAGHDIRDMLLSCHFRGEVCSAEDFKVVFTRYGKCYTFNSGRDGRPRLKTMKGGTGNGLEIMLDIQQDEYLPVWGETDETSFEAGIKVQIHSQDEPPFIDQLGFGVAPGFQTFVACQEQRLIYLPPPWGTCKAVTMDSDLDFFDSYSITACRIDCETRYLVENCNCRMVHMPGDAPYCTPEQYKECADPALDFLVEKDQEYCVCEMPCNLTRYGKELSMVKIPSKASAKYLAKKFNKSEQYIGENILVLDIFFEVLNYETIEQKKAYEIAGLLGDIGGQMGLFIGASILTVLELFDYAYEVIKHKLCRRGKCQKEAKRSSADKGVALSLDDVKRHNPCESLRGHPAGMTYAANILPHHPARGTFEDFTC
Excerpt: To characterize the interaction between ASC06-IgG1 and hASIC1a, the 6H7 stable line expressing the hASIC1a-eYFP fusion protein was used in a Western blot analysis. […] In contrast, both the commercial goat polyclonal anti-ASIC1 antibody and the anti-eYFP antibody were able to detect the hASIC1a-eYFP protein in the 6H7 lysate at molecular mass around 100 kDa (FIG. 13A and data not shown).
ASC06-IgG1 was used to pull down native hASIC1a-YFP in cell lysate followed by anti-eYFP Western blot for hASIC1a-YFP detection.

[1] = pH stability, SEC-HPLC analysis; assay type: physicochemical; parameters: dose or concentration left out as unconfirmed; settings: pH 7.4 to 5.0, 6 h at 37° C.
Experimental: The tolerance of ASC06-IgG1 to acidic conditions was tested. A concentrated ASC06-IgG1 solution ([…]) was incubated at different pH values (from 7.4 to 5.0) for 6 h at 37° C. and subjected to SEC-HPLC analysis.

B1: ASC06-IgG1: ASC06 antibody converted into a full length IgG1 form (antibody, V domains shown)
VH: QVQLQQSGGGLVQPGGSLRLSCAASGFTFSSYAMSWVRQAPGKGLEWVSAISGSGGSTYYADSVKGRFTISRDNSKNTLYLQMNSLRAEDTAVYYCAKDSFYGYSKGDWGQGTLVTVSS
VL: QSALTQPASVSGSPGQSITISCTGTSSDVGAYNYVSWYQQQPGKAPKLMIYGVSNRPSGVSNRFSGSKSGNAASLTISGLQAEDEADYYCSSYTSSSTYVFGTGTKLTVLG
duration of sustained inhibition during washout (hASIC1a; after washing): 30 min | maximal inhibition of the acid (pH 6.0)-induced currents (hASIC1a; dose-dependent): up to 80% | recognition of hASIC1a in cell lysate in Western blot (hASIC1a-eYFP; denatured lysate of 6H7 cells): could not recognize | pull down of native hASIC1a-YFP, anti-eYFP Western blot (hASIC1a-eYFP; immunoprecipitation): recognized hASIC1a in a conformation-dependent manner | degradation or aggregation by SEC-HPLC [1]: no significant degradation or aggregation
